Source: patent US20230193226A1, “BUTYRYLCHOLI[…] AN ENHANCED ABILITY TO HYDROLYZE ACYL GHRELIN” (priority 2014, published 2023)

Experiments:
BChE = target: T1, BChE (Mus musculus, UniProt Q03311, A228S/A357W/S256A/S316G/Y361G); assay: Selective BChE inhibition by iso-OMPA in vector-treated mice; assay type: in vivo; details: AAV-mBChE mut mice, iso-OMPA 40 mg kg^-1, 6 hours fast
T1 construct: expressed in transfected cells; host or cells: C57bl/6 mice after AAV-mBChE mut gene transfer; activity measured in serum/plasma
Protocol: FIGS. 6A-6B. […] All mice were then fasted for 6 hours, and serum samples were collected to determine (6A) BChE activity versus the reference substrate (BTCh) and (6B) the levels of acyl ghrelin.

human ghrelin = assay: In vitro enzyme screening: ghrelin hydrolyzing activity of purified mutant BChE (ghrelin immunoassay); assay type: biochemical; details: purified enzyme from HEK293 supernatant
human acyl-ghrelin = assay: Deacylation of human acyl ghrelin by purified human BChE; assay type: biochemical
Protocol: FIGS. 3A-3D. […] (3B) One ng of human acyl-ghrelin was treated with different amount of human BChE. After 20 hours of incubation, residual acyl ghrelin and desacyl ghrelin in each reaction were determined. (3C) One ng of human acyl ghrelin was treated with 10 µg of human BChE and % decrease in residual acyl ghrelin was measured as a function of time. […] The hydrolysis activities with butyrylthiocholine (BTCh) or acyl-ghrelin as substrates were determined by Ellman assay and acyl-ghrelin immunoassay, respectively. Data are normalized to the no inhibitor controls. All values are means ± SD, each with duplicate samples (n=3).
A sample of purified human BChE was obtained from Dr. O. Lockridge and assessed by gel electrophoresis (FIG. 3A).

[1] = 1 ng human acyl-ghrelin, increasing amounts of human BChE, 20 hours

Molecule: CC(C)NP(=O)(NC(C)C)OP(=O)(NC(C)C)NC(C)C [iso-OMPA]
- BTCh hydrolysis activity of plasma (BChE): abolished
- level of acyl ghrelin in plasma (BChE): equivalent to the level observed in AAV-Luc-treated control mice

B1: A199S/F227A/S287G/A328W/Y332G (protein)
chain: EDDIIIATKNGKVRGMNLTVFGGTVTAFLGIPYAQPPLGRLRFKKPQSLTKWSDIWNATKYANSCCQNIDQSFPGFHGSEMWNPNTDLSEDCLYLNVWIPAPKPKNATVLIWIYGGGFQTGTSSLHVYDGKFLARVERVIVVSMNYRVGALGFLALPGNPEAPGNMGLFDQQLALQWVQKNIAAFGGNPKSVTLFGESSGAASVSLHLLSPGSHSLFTRAILQSGSANAPWAVTSLYEARNRTLNLAKLTGCSRENETEIIKCLRNKDPQEILLNEAFVVPYGTPLGVNFGPTVDGDFLTDMPDILLELGQFKKTQILVGVNKDEGTWFLVGGAPGFSKDNNSIITRKEFQEGLKIFFPGVSEFGKESILFHYTDWVDDQRPENYREALGDVVGDYNFICPALEFTKKFSEWGNNAFFYYFEHRSSKLPWPEWMGVMHGYEIEFVFGLPLERRDNYTKAEEILSRSIVKRWANFAKYGNPNETQNNSTSWPVFKSTEQKYLTLNTESTRIMTKLRAQQCRFWTSFFPKVLEMTGNIDEAEWEWKAGFHRWNNYMMDWKNQFNDYTSKKESCVGL
- ghrelin hydrolyzing activity in vitro (human ghrelin): modest activity, comparable to that of wild type human BChE

B2: human BChE (protein, listed as Homo sapiens)
chain: MHSKVTIICIRFLFWFLLLCMLIGKSHTEDDIIIATKNGKVRGMNLTVFGGTVTAFLGIPYAQPPLGRLRFKKPQSLTKWSDIWNATKYANSCCQNIDQSFPGFHGSEMWNPNTDLSEDCLYLNVWIPAPKPKNATVLIWIYGGGFQTGTSSLHVYDGKFLARVERVIVVSMNYRVGALGFLALPGNPEAPGNMGLFDQQLALQWVQKNIAAFGGNPKSVTLFGESAGAASVSLHLLSPGSHSLFTRAILQSGSFNAPWAVTSLYEARNRTLNLAKLTGCSRENETEIIKCLRNKDPQEILLNEAFVVPYGTPLSVNFGPTVDGDFLTDMPDILLELGQFKKTQILVGVNKDEGTAFLVYGAPGFSKDNNSIITRKEFQEGLKIFFPGVSEFGKESILFHYTDWVDDQRPENYREALGDVVGDYNFICPALEFTKKFSEWGNNAFFYYFEHRSSKLPWPEWMGVMHGYEIEFVFGLPLERRDNYTKAEEILSRSIVKRWANFAKYGNPNETQNNSTSWPVFKSTEQKYLTLNTESTRIMTKLRAQQCRFWTSFFPKVLEMTGNIDEAEWEWKAGFHRWNNYMMDWKNQFNDYTSKKESCVGL
- acyl ghrelin hydrolysis rate as a function of time (human acyl-ghrelin; 1 ng human acyl ghrelin, 10 µg human BChE): linear hydrolysis rate
- amount of acyl ghrelin (human acyl-ghrelin; [1]): decrease in the amount of acyl ghrelin
- amount of desacyl ghrelin (human acyl-ghrelin; [1]): increase in the amount of the breakdown product, desacyl ghrelin

B3: A199S/S227A/S287G/A328W/Y332G (protein)
chain: EEDFIITTKTGRVRGLSMPVLGGTVTAFLGIPYAQPPLGSLRFKKPQPLNKWPDIHNATQYANSCYQNIDQAFPGFQGSEMWNPNTNLSEDCLYLNVWIPVPKPKNATVMVWIYGGGFQTGTSSLPVYDGKFLARVERVIVVSMNYRVGALGFLAFPGNPDAPGNMGLFDQQLALQWVQRNIAAFGGNPKSITIFGESSGAASVSLHLLCPQSYPLFTRAILESGSANAPWAVKHPEEARNRTLTLAKFTGCSKENEMEMIKCLRSKDPQEILRNERFVLPSDSILGINFGPTVDGDFLTDMPHTLLQLGKVKKAQILVGVNKDEGTWFLVGGAPGFSKDNDSLITRKEFQEGLNMYFPGVSRLGKEAVLFYYVDWLGEQSPEVYRDALDDVIGDYNIICPALEFTKKFAELENNAFFYFFEHRSSKLPWPEWMGVMHGYEIEFVFGLPLGRRVNYTRAEEIFSRSIMKTWANFAKYGHPNGTQGNSTMWPVFTSTEQKYLTLNTEKSKIYSKLRAPQCQFWRLFFPKVLEMTGDIDETEQEWKAGFHRWSNYMMDWQNQFNDYTSKKESCTAL
- ghrelin hydrolyzing activity in vitro (human ghrelin): enhanced activity
- ghrelin hydrolyzing activity relative to wild type mouse BChE (human ghrelin): at least 20 fold
